Substitutions are numbered along the chain they refer to.
B1: mAb2.5 Fab (phage-displayed) (Fab, V domains shown)
VH: ELQLQESGPGLVKPSETLSLTCTVSGGSISESSYYWGWIRQPPGKGLEWIGSIYYTGNTYYLPSLKSRVTISVDTSKNQFSLKLSSVTAADTAVYYCARVRYGVGVPRYFDPWGQGTLVTVSS
VL: ESVLTQPPSVSGAPGQRVTISCTGSSSNIGAHYDVHWYQQLPGTAPKLLIYGNDNRPSGVPDRFSGSKSGTSASLAITGLQAEDEADYYCQSYDYSLSGYVFGGGTKLTVL
B2: mAb2.4 Fab (phage-displayed) (Fab, V domains shown)
VH: B1 VH with E31N
VL: B1 VL
B3: mAb2.6 Fab (phage-displayed) (Fab, V domains shown)
VH: B1 VH with E31T, Y35H, L62M, A98V
VL: B1 VL
B4: mAb2.7 Fab (phage-displayed) (Fab, V domains shown)
VH: B1 VH with E31R, L62W, A98T
VL: B1 VL
B5: mAb1.0 Fab (yeast clone culture supernatant) (Fab, V domains shown)
VH: QVQLVESGGGVVQPGRSLRLSCAASGFSFSAYAMHWVRQAPGKGLEWVAVISYDGTNEYYADSVKGRFTISRDNSKNTLYLQMNSLRAEDTAVYYCARGIRIFTSYFDSWGQGTLVTVSS
VL: B1 VL with E1Q, G52S, D54N, S98R
notes: Human Fab secreted by the yeast clone, not purified
B6: mAb3.0 Fab (yeast clone culture supernatant) (Fab, V domains shown)
VH: QLQLQESGPGLVKPSETLSLTCTVSGGSISSTSYYWGWIRQPPGKGLEWIGSIHYSGNTYYNPSLKSRVTISVDTSKNQFSLKLSSVTAADTAVYYCARVHYGGYIPRRFDHWGQGTLVTVSS
VL: B1 VL with E1Q, H32G, D54T, S98R
notes: as for B5
B7: mAb5.0 Fab (yeast clone culture supernatant) (Fab, V domains shown)
VH: EVQLLESGGGLVQPGGSLRLSCAASGFTFSTYAMSWVRQAPGKGLEWVSGISGGSGYTYYADSVKGRFTISRDNSKNTLYLQMNSLRAEDTAVYYCARVVTYRDPPASFDYWGQGTLVTVSS
VL: B1 VL with E1Q, S98K, G99A
notes: as for B5
B8: mAb4.0 Fab (yeast clone culture supernatant) (Fab, V domains shown)
VH: QLQLQESGPGLVKPSETLSLTCTVSGGSIGSRSYYWGWIRQPPGKGLEWIGSIHYSGTTYYNPSLKSRVTISVDTSKNQFSLKLSSVTAADTAVYYCARVAPSYPRVFDYWGQGTLVTVSS
VL: B1 VL with E1Q, H32G, D54R, S98R, G99V
notes: as for B5
B9: mAb2.0 Fab (yeast clone culture supernatant) (Fab, V domains shown)
VH: B1 VH with E1Q, E31T, L62N
VL: B1 VL with E1Q
notes: as for B5
B10: mAb6_2.4 Fab (Fab, V domains shown)
VH: ELQLQESGPGLVKPSETLSLTCTVSGGSITASNYYWGWIRQPPGKGLEWIGSIDYTGSTYYNPSLKSRVTISVDTSKNQFSLKLSSVTAADTAVYYCATGKYYETYLGFDVWGQGTLVTVSS
VL: B1 VL
notes: Purified Fab
B11: mAb1.0 recombinant human IgG1 (antibody, V domains shown)
VH: B5 VH
VL: B1 VL with E1Q, G52S, D54N, S98R
B12: mAb5.0 recombinant human IgG1 (antibody, V domains shown)
VH: B7 VH
VL: B1 VL with E1Q, S98K, G99A
B13: mAb4.0 recombinant human IgG1 (antibody, V domains shown)
VH: B8 VH
VL: B1 VL with E1Q, H32G, D54R, S98R, G99V
B14: mAb3.0 recombinant human IgG1 (antibody, V domains shown)
VH: B6 VH
VL: B1 VL with E1Q, H32G, D54T, S98R

biological target: T1, hu-IL-36α (human IL-36α, N-terminally truncated active form K6-F158) (human, UniProt Q9UHA7 6-158); assay: phage competition ELISA: Fab on phage, soluble hu-IL-36α titrated against coated hu-IL-36α
T1 construct: Purification tag cleaved off; Biotinylated where captured (SPR, some ELISAs); also called hu-IL-36a
T1 sequence: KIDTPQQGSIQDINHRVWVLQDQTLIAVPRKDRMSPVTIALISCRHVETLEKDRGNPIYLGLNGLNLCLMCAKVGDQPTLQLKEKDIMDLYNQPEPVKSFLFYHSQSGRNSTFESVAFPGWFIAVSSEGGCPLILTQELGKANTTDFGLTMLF
Method: (§1) Selected phages with top binding signal were purified to perform phage competition ELISA. The optimal phage concentration was incubated with serially-diluted human IL-36α or human IL-36γ in ELISA buffer in NUNC F plate for two hours. 80 μL of the mixture was transferred to human IL-36α or human IL-36γ coated wells for 15 min to capture unbound phage. The plate was washed with wash buffer (0.05% TWEEN®20 in PBS), and HRP-conjugated anti-M13 antibody (Sino biological, Cat #11973-MM05-H-50) was added in ELISA buffer for 30 min. The plates were washed and developed as described above. The absorbance at 450 nm was plotted as a function of antigen concentration in solution to determine phage IC50.

B1 and B2 are within 1.5-fold of each other in IC50: 0.77 nM for the first, 0.68 nM for the second.

B3 and B4 are within 1.5-fold of each other in IC50: 1.62 nM for the first, 1.2 nM for the second.

Biological target: T2, cy-IL-36γ (cynomolgus monkey IL-36γ, S18-K168) (cynomolgus monkey, UniProt Q9NZH8 18-167 (human entry))
T2 construct: Purification tag cleaved off
T2 chain: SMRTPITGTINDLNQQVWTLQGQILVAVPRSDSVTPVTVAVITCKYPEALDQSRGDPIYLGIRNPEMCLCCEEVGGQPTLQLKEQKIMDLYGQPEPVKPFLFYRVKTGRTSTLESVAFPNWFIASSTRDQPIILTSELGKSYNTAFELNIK
Assay: ELISA on coated cy- and hu-IL-36γ, yeast Fab supernatant; ratio of OD450
Method: (§2) Cell supernatants from yeast clones of interest were tested for binding to human IL-36 by ELISA as described above. To compare the binding of these supernatants to human and cynomolgus monkey IL-36, IL-36 proteins were coated at 2.5 μg/mL on 96-well Nunc MaxiSorp plates (Thermo Fisher) and the plates blocked with 5% goat serum in PBS. Yeast supernatants were diluted 1:1 with PBST containing 1% w/v BSA and added to the ELISA plates for 1-1.5 hours with agitation. Bound Fab was detected by incubating the plates with F(ab′)2-HRP (Jackson ImmunoResearch). The ELISAs were developed for 3-10 minutes by addition of 50 μL/well of tetramethylbenzidine (TMB) microwell peroxidase substrate (Scytek Laboratories, Inc., Logan, Utah, USA) and enzymatic color development was stopped by acidification with 50 µL/well of 2 N H₂SO₄ (Sigma-Aldrich Corporation, St. Louis, Mo., USA). The optical density of the samples at a wavelength of 450 nm (OD450) was analyzed with a SpectraMax i3X plate reader (Molecular Devices LLC, San Jose, Calif., USA). To estimate the relative affinity of each clone for cynomolgus monkey IL-36 and human IL-36 in this assay, a ratio of OD450 (OD450_cyIL-36/OD450_huIL-36) was calculated for each clone and IL-36 cytokine.

Compared with B5, B6 is lower in “ELISA OD450cyIL-36/OD450hu-IL-36” value: 1.3 ratio for the first, 1 ratio for the second.

First: B7
Second: B8
The “ELISA OD450cyIL-36/OD450hu-IL-36” value of the first is lower: 1 ratio for the first, 1.2 ratio for the second.

With B9 the “ELISA OD450cyIL-36/OD450hu-IL-36” value was 1.2 ratio.

Biological target: T3, hu-IL-36β (human IL-36β, N-terminally truncated active form R5-E157) (human)
T3 chain: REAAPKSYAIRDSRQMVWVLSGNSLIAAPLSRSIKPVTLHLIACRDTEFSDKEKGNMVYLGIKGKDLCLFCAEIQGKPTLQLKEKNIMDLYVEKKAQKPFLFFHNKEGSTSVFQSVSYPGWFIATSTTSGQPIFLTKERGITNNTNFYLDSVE
Assay: cell-based or functional assay

B10 was tested, and the “IC50, IL-36-stimulated IL-8 secretion by HaCat cells” value was 0.13 nM.

biological target: T4, hu-IL-36γ (human IL-36γ, N-terminally truncated active form S18-D169) (human, UniProt Q9NZH8 18-169); assay: phage competition ELISA: Fab on phage, soluble hu-IL-36γ titrated against coated hu-IL-36γ
T4 construct: Purification tag cleaved off; Biotinylated where captured; also called hu-IL-36g
T4 sequence: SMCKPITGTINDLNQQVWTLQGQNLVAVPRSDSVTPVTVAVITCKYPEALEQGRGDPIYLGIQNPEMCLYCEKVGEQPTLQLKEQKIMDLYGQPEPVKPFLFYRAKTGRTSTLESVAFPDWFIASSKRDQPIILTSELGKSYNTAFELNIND
Method: as §1

B1 and B2 are within 1.5-fold of each other in IC50: 1.88 nM for the first, 1.52 nM for the second.

B3 and B4 are within 1.5-fold of each other in IC50: 1.99 nM for the first, 1.53 nM for the second.

Biological target: T3, hu-IL-36β (human IL-36β, N-terminally …)
Assay: SPR (Biacore), purified Fab, biotinylated hu-IL-36β captured

With B10 the Kd was 1.05 nM.

Biological target: T5, cy-IL-36α (cynomolgus monkey IL-36α, K6-F158) (cynomolgus monkey, UniProt Q9UHA7 14-158 (human entry))
T5 construct: Purification tag cleaved off
T5 chain: T1 sequence with I2S, D3E, T4M, Q7P, G8V, T24I, M34V, A40S, V74A
Assay: ELISA on coated cy- and hu-IL-36α, yeast Fab supernatant; ratio of OD450
Method: as §2

First: B5
Second: B6
The “ELISA OD450cyIL-36/OD450hu-IL-36” value of the first is higher: 0.6 ratio for the first, 0.5 ratio for the second.

B7 and B8 are the same in “ELISA OD450cyIL-36/OD450hu-IL-36” value: 0.5 ratio for the first, 0.5 ratio for the second.

With B9 the “ELISA OD450cyIL-36/OD450hu-IL-36” value was 0.7 ratio.

biological target: T4, hu-IL-36γ (human IL-36γ, N-terminally …); assay: cell-based or functional assay

Compared with B5, B6 is higher in “% Inhibition, HEK-Blue IL-36R SEAP reporter assay” value (from here on “% Inhibition”): 31% for the first, 64% for the second.

First: B7
Second: B8
The “% Inhibition” value of the first is higher: 75% for the first, 57% for the second.

In the case of B9, the “% Inhibition” value is reported as 89%.

biological target: T1, hu-IL-36α (human IL-36α, N-terminally …); assay: cell-based or functional assay

First: B5
Second: B6
The “% Inhibition” value of the first is higher: 70% for the first, 40% for the second.

Going from B7 to B8, the “% Inhibition” value rises from 75% to 91%.

For B9, the “% Inhibition” value was 91%.

biological target: T4, hu-IL-36γ (human IL-36γ, N-terminally …); assay: cell-based or functional assay; remark: another data set of the same source

Going from B11 to B12, the “IC50, HEK-Blue IL-36R SEAP reporter assay” value rises from 5.3 nM to 142 nM (27-fold).

Going from B13 to B14, the “IC50, HEK-Blue IL-36R SEAP reporter assay” value falls from 52 nM to 30 nM (1.7-fold).

biological target: T1, hu-IL-36α (human IL-36α, N-terminally …); assay: cell-based or functional assay; remark: another data set of the same source

Going from B11 to B12, the “IC50, HEK-Blue IL-36R SEAP reporter assay” value rises from 43 nM to 95 nM (2.2-fold).

First: B13
Second: B14
The “IC50, HEK-Blue IL-36R SEAP reporter assay” value of the first is 5.6-fold lower: 16 nM for the first, 90 nM for the second.

biological target: T4, hu-IL-36γ (human IL-36γ, N-terminally …); assay: ELISA, yeast Fab supernatant, anti-Fab-HRP

Compared with B5, B6 is lower in “ELISA OD450” value: 2.43 OD450 for the first, 2.11 OD450 for the second.

Going from B7 to B8, the “ELISA OD450” value rises from 2.08 OD450 to 2.3 OD450.

In the case of B9, the “ELISA OD450” value is reported as 2.5 OD450.

biological target: T1, hu-IL-36α (human IL-36α, N-terminally …); assay: ELISA, yeast Fab supernatant, anti-Fab-HRP

First: B5
Second: B6
The “ELISA OD450” value of the first is lower: 0.94 OD450 for the first, 1.63 OD450 for the second.

Going from B7 to B8, the “ELISA OD450” value rises from 2.05 OD450 to 2.16 OD450.

For B9, the “ELISA OD450” value was 2.53 OD450.
